According to IntAct's records for PubMed 26449471:

B1: Sestrin-2 (Homo sapiens), P58004 (parent)
chain: MIVADSECRAELKDYLRFAPGGVGDSGPGEEQRESRARRGPRGPSAFIPVEEVLREGAESLEQHLGLEALMSSGRVDNLAVVMGLHPDYFTSFWRLHYLLLHTDGPLASSWRHYIAIMAAARHQCSYLVGSHMAEFLQTGGDPEWLLGLHRAPEKLRKLSEINKLLAHRPWLITKEHIQALLKTGEHTWSLAELIQALVLLTHCHSLSSFVFGCGILPEGDADGSPAPQAPTPPSEQSSPPSRDPLNNSGGFESARDVEALMERMQQLQESLLRDEGTSQEEMESRFELEKSESLLVTPSADILEPSPHPDMLCFVEDPTFGYEDFTRRGAQAPPTFRAQDYTWEDHGYSLIQRLYPEGGQLLDEKFQAAYSLTYNTIAMHSGVDTSVLRRAIWNYIHCVFGIRYDDYDYGEVNQLLERNLKVYIKTVACYPEKTTRRMYNLFWRHFRHSEKVHVNLLLLEARMQAALLYALRAITRYMT
partner: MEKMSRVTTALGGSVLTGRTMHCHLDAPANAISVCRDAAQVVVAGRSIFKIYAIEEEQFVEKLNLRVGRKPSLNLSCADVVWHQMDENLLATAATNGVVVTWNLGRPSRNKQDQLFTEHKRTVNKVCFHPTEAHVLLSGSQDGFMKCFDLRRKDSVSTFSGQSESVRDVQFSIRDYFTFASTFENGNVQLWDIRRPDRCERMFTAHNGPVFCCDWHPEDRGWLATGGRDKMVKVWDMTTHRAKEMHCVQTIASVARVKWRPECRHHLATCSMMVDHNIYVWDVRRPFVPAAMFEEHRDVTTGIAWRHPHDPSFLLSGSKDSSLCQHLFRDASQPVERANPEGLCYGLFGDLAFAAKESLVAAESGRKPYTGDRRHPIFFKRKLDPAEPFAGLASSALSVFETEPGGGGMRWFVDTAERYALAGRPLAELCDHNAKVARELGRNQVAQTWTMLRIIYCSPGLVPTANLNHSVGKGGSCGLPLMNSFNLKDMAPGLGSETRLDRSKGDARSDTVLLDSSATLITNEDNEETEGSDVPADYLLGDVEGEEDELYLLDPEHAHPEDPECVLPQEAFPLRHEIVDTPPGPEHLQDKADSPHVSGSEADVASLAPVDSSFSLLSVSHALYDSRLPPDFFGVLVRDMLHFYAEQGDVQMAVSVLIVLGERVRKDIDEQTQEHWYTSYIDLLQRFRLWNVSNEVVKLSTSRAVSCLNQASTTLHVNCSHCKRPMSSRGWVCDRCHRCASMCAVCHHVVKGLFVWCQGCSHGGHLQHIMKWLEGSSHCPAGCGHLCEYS

Variants of: B1
Conditions: with wdr24_human WDR24, Q96S15

Variant | effect of a mutation on the interaction
MIVADSECRAELKDYLRFAPGGVGDSGPGEEQRESRARRGPRGPSAFIPVEEVLREGAESLEQHLGLEALMSSGRVDNLAVVMGLHPDYFTSFWRLHYLLLHTDGPLASSWRHYIAIMAAARHQCSYLVGSHMAEFLQTGGDPEWLLGLHRAPEKLRKLSEINKLLAHRPWLITKEHIQALLKTGEHTWWLAELIQALVLLTHCHSLSSFVFGCGILPEGDADGSPAPQAPTPPSEQSSPPSRDPLNNSGGFESARDVEALMERMQQLQESLLRDEGTSQEEMESRFELEKSESLLVTPSADILEPSPHPDMLCFVEDPTFGYEDFTRRGAQAPPTFRAQDYTWEDHGYSLIQRLYPEGGQLLDEKFQAAYSLTYNTIAMHSGVDTSVLRRAIWNYIHCVFGIRYDDYDYGEVNQLLERNLKVYIKTVACYPEKTTRRMYNLFWRHFRHSEKVHVNLLLLEARMQAALLYALRAITRYMT [S190W] | disrupting interaction strength
